Assay results as given in PMC6899756, “Identification of amino acid residues of nerve growth factor important for neurite outgrowth in human dorsal root ganglion neurons” (The European Journal of Neuroscience, 2019).

Columns and labels:
[1] = molecular target: T1, tropomyosin-related kinase A (TrkA) receptor (human, UniProt P04629-2 33-790, phosphotyrosine at 490 (Y490) and at 785 (Y785) after treatment of the cells with NGF); test: cell-based or functional assay
[2] = molecular target: T1, tropomyosin-related kinase A (TrkA) …; test: cell-based or functional assay; remark: listed apart in the source

T1 sequence (P04629 other isoform, or with tags, fused parts or gaps): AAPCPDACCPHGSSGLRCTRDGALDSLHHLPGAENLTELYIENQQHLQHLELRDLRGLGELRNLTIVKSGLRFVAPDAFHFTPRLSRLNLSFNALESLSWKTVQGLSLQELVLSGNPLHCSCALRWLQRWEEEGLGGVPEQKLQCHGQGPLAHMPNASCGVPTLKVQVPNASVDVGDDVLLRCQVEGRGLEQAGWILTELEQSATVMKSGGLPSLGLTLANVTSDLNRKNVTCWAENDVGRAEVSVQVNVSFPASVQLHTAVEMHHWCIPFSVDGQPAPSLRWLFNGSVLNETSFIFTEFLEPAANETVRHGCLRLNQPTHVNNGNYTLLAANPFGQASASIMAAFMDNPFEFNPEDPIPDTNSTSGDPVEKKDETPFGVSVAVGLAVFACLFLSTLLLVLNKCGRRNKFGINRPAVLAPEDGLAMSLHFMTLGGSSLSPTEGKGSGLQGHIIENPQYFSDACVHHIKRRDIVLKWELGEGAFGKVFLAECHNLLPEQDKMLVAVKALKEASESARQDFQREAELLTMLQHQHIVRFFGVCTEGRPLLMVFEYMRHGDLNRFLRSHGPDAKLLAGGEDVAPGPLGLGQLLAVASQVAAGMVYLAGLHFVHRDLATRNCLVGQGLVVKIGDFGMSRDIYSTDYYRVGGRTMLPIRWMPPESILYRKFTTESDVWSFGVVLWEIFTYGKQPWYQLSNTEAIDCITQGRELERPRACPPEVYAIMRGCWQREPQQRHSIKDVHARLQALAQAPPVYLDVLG

B1: Src homology 2 domain containing transforming protein 1 (SHC1) (natural protein, UniProt P29353 1-583, looked up)
chain: MDLLPPKPKYNPLRNESLSSLEEGASGSTPPEELPSPSASSLGPILPPLPGDDSPTTLCSFFPRMSNLRLANPAGGRPGSKGEPGRAADDGEGIVGAAMPDSGPLPLLQDMNKLSGGGGRRTRVEGGQLGGEEWTRHGSFVNKPTRGWLHPNDKVMGPGVSYLVRYMGCVEVLQSMRALDFNTRTQVTREAISLVCEAVPGAKGATRRRKPCSRPLSSILGRSNLKFAGMPITLTVSTSSLNLMAADCKQIIANHHMQSISFASGGDPDTAEYVAYVAKDPVNQRACHILECPEGLAQDVISTIGQAFELRFKQYLRNPPKLVTPHDRMAGFDGSAWDEEEEEPPDHQYYNDFPGKEPPLGGVVDMRLREGAAPGAARPTAPNAQTPSHLGATLPVGQPVGGDPEVRKQMPPPPPCPGRELFDDPSYVNVQNLDKARQAVGGAGPPNPAINGSAPRDLFDMKPFEDALRVPPPPQSVSMAEQLRGEPWFHGKLSRREAEALLQLNGDFLVRESTTTPGQYVLTGLQSGQPKHLLLVDPEGVVRTKDHRFESVSHLISYHMDNHLPIISAGSELCLQQPVERKL
plateau of the second activation phase at around 10 μg/ml NGF-K95A/Q96A in U2OS-TrkA/p75-SHC1 cells, relative to wild-type NGF (interaction between TrkA and SHC1, enzyme fragment complementation) [1]: ~300% | second activation phase EC50 of NGF-K95A/Q96A in U2OS-TrkA/p75-SHC1 cells (interaction between TrkA and SHC1, enzyme fragment complementation) [1]: ~3 µg/mL | EC50 of NGF-K95A/Q96A added to U2OS-TrkA/p75-SHC1 cells for the interaction between TrkA and SHC1 (enzyme fragment complementation, chemiluminescence) [2]: 0.02 µg/mL | EC50 of NGF-R100E added to U2OS-TrkA/p75-SHC1 cells for the interaction between TrkA and SHC1 (enzyme fragment complementation, chemiluminescence) [2]: 0.00056 µg/mL | EC50 of NGF-W99A added to U2OS-TrkA/p75-SHC1 cells for the interaction between TrkA and SHC1 (enzyme fragment complementation, chemiluminescence) [2]: 0.023 µg/mL | EC50 of wild-type NGF added to U2OS-TrkA/p75-SHC1 cells for the interaction between TrkA and SHC1 (enzyme fragment complementation, chemiluminescence) [2]: 0.0042 µg/mL
